Values joined by “and” are separate entries in the source; they are usually repeats but may differ in a detail not shown here. Equal entries are not always repeated.
Target: T1, PD-1 (as used in the competitive ELISA) (UniProt Q15116 25-167, limits assumed)
T1 construct: PD-1 is inferred as the target from the next sentence on PD-1 receptor occupancy
Assay: competitive ELISA; competing ligand not named

IC50: 3 nM and ~0.5 µg/mL
B1: toripalimab (antibody, human IgG4 S228P, kappa, V domains shown)
VH: QGQLVQSGAEVKKPGASVKVSCKASGYTFTDYEMHWVRQAPIHGLEWIGVIESETGGTAYNQKFKGRVTITADKSTSTAYMELSSLRSEDTAVYYCAREGITTVATTYYWYFDVWGQGTTVTVSS
VL: DVVMTQSPLSLPVTLGQPASISCRSSQSIVHSNGNTYLEWYLQKPGQSPQLLIYKVSNRFSGVPDRFSGSGSGTDFTLKISRVEAEDVGVYYCFQGSHVPLTFGQGTKLEIKR
notes: Humanized IgG4 mAb; also called JS001; anti-PD-1 antibody toripalimab

Source: patent US20230107856A1 (SHANGHAI JUNSHI BIOSCIENCES, published 2023)
